One molecule from article doi:10.1101/2023.01.09.523258 can be followed below.

This assay has as its target T1, Albumin from chicken egg (Ovalbumin/OVA) (chicken), P01012.
T1 chain: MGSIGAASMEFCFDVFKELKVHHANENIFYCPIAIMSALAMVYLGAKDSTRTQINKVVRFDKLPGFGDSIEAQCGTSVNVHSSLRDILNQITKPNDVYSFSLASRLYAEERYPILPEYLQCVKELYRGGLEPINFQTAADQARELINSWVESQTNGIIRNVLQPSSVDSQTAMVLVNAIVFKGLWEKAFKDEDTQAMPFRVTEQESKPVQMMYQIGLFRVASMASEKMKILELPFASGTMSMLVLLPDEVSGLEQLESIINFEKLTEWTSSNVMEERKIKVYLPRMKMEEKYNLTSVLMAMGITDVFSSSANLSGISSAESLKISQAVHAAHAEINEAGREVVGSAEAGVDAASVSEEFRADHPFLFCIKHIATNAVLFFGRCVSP
Briefly: native MS. Particulars: remark: other sources report otherwise.

B1: Albumin from chicken egg (Ovalbumin/OVA), P01012 1-386 (natural protein)
chain: T1 chain
For orientation: stoichiometry N means a count of units in the complex or per binding partner. Molecule B1 registered a relative abundance of the dimer of 5 to 8% and a stoichiometry N of 2.
